The text below walks through data of paper PMC8584306, “Characterization of Novel Pathogenic Variants Causing Pyridox(am)ine 5′-Phosphate Oxidase-Dependent Epilepsy” (International Journal of Molecular Sciences, 2021).

The target of data set [1] is T1, pyridox(am)ine 5′-phosphate oxidase (PNPO) (Homo sapiens, UniProt Q9NVS9).
T1 construct: homodimer with FMN
T1 sequence (Q9NVS9 1-261): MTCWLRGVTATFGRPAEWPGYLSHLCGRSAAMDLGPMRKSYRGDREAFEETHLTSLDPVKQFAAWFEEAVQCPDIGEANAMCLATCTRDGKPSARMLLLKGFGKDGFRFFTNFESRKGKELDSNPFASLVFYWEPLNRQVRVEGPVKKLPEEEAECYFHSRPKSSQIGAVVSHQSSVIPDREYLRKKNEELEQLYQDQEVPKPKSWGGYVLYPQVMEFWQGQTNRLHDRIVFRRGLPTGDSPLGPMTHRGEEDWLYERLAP
Put plainly: differential scanning fluorimetry. The class given is binding. As to conditions: equimolar FMN added to 2 µM purified enzyme (already FMN-bound); range given for all PNPO forms. The source says: differential scanning fluorimetry on pyridox(am)ine 5′-phosphate oxidase (PNPO) | equimolar amount of FMN stabilizes all the PNPO forms by increasing the Tm
(Differential scanning fluorimetry follows unfolding on heating by fluorescence.)

Data set [2] deals with the molecule itself. Put plainly: SEC; gel filtration on a Superdex 200 10/300 GL column, as described previously [20]; elution profiles compared with the wild type. On the technique in general: Size exclusion chromatography separates by hydrodynamic size, large species first.

Regarding `Cc1cc2nc3c(=O)[nH]c(=O)nc-3n(C[C@H](O)[C@H](O)[C@H](O)COP(=O)(O)O)c2cc1C` [FMN], the “increase in Tm” value in data set [1] was 2–3 °C.

B1: pyridox(am)ine 5′-phosphate oxidase, wild type (enzyme, human)
chain: MTCWLRGVTATFGRPAEWPGYLSHLCGRSAAMDLGPMRKSYRGDREAFEETHLTSLDPVKQFAAWFEEAVQCPDIGEANAMCLATCTRDGKPSARMLLLKGFGKDGFRFFTNFESRKGKELDSNPFASLVFYWEPLNRQVRVEGPVKKLPEEEAECYFHSRPKSSQIGAVVSHQSSVIPDREYLRKKNEELEQLYQDQEVPKPKSWGGYVLYPQVMEFWQGQTNRLHDRIVFRRGLPTGDSPLGPMTHRGEEDWLYERLAP
notes: human pyridox(am)ine 5′-phosphate oxidase (PNPO), recombinant; The vector pET28-PNPO is named only for the variants; also called PNPO; WT; source: recombinant, purified by the protocol of [4]
Broadly, the stoichiometry N is a count of units in the complex or per binding partner. For the molecule B1, the “stoichiometry N” value in data set [2] stood at 2.

B2: pyridox(am)ine 5′-phosphate oxidase P213S variant (enzyme, human)
chain: MTCWLRGVTATFGRPAEWPGYLSHLCGRSAAMDLGPMRKSYRGDREAFEETHLTSLDPVKQFAAWFEEAVQCPDIGEANAMCLATCTRDGKPSARMLLLKGFGKDGFRFFTNFESRKGKELDSNPFASLVFYWEPLNRQVRVEGPVKKLPEEEAECYFHSRPKSSQIGAVVSHQSSVIPDREYLRKKNEELEQLYQDQEVPKPKSWGGYVLYSQVMEFWQGQTNRLHDRIVFRRGLPTGDSPLGPMTHRGEEDWLYERLAP
notes: human PNPO, patient variant P213S made by site-directed mutagenesis in pET28-PNPO; also called PNPO P213S; source: E. coli Rosetta (DE3), purified as described in [4]
For the molecule B2, the “stoichiometry N” value in data set [2] is 2.

B3: pyridox(am)ine 5′-phosphate oxidase D33V variant (enzyme, human)
chain: MTCWLRGVTATFGRPAEWPGYLSHLCGRSAAMVLGPMRKSYRGDREAFEETHLTSLDPVKQFAAWFEEAVQCPDIGEANAMCLATCTRDGKPSARMLLLKGFGKDGFRFFTNFESRKGKELDSNPFASLVFYWEPLNRQVRVEGPVKKLPEEEAECYFHSRPKSSQIGAVVSHQSSVIPDREYLRKKNEELEQLYQDQEVPKPKSWGGYVLYPQVMEFWQGQTNRLHDRIVFRRGLPTGDSPLGPMTHRGEEDWLYERLAP
notes: human PNPO, patient variant D33V made by site-directed mutagenesis in pET28-PNPO; also called PNPO D33V; source: E. coli Rosetta (DE3), purified as described in [4]
In the case of B3, in data set [2], the “stoichiometry N” value came to 2.

B4: pyridox(am)ine 5′-phosphate oxidase R161C variant (enzyme, human)
chain: MTCWLRGVTATFGRPAEWPGYLSHLCGRSAAMDLGPMRKSYRGDREAFEETHLTSLDPVKQFAAWFEEAVQCPDIGEANAMCLATCTRDGKPSARMLLLKGFGKDGFRFFTNFESRKGKELDSNPFASLVFYWEPLNRQVRVEGPVKKLPEEEAECYFHSCPKSSQIGAVVSHQSSVIPDREYLRKKNEELEQLYQDQEVPKPKSWGGYVLYPQVMEFWQGQTNRLHDRIVFRRGLPTGDSPLGPMTHRGEEDWLYERLAP
notes: human PNPO, patient variant R161C made by site-directed mutagenesis in pET28-PNPO; also called PNPO R161C; source: E. coli Rosetta (DE3), purified as described in [4]
For the molecule B4, in data set [2], the “stoichiometry N” value worked out at 2.

B5: pyridox(am)ine 5′-phosphate oxidase E50K variant (enzyme, human)
chain: MTCWLRGVTATFGRPAEWPGYLSHLCGRSAAMDLGPMRKSYRGDREAFEKTHLTSLDPVKQFAAWFEEAVQCPDIGEANAMCLATCTRDGKPSARMLLLKGFGKDGFRFFTNFESRKGKELDSNPFASLVFYWEPLNRQVRVEGPVKKLPEEEAECYFHSRPKSSQIGAVVSHQSSVIPDREYLRKKNEELEQLYQDQEVPKPKSWGGYVLYPQVMEFWQGQTNRLHDRIVFRRGLPTGDSPLGPMTHRGEEDWLYERLAP
notes: human PNPO, natural variant E50K made by site-directed mutagenesis in pET28-PNPO; also called PNPO E50K; source: E. coli Rosetta (DE3), purified as described in [4]
Consider B5, for which the “stoichiometry N” value in data set [2] was determined as 2.
